We go through 2 molecules from patent US20260250420A1 (SICHUAN KELUN BIOTECH BIOPHARMACEUTICAL, published 2026).

The target in assay [1] is T1, mouse PTK7 protein (extracellular sequence of mouse PTK7 with C-terminal 6×His tag) (mouse, UniProt Q8BKG3 23-696).
T1 construct: extracellular domain; Expressed transiently in HEK293 cells
T1 sequence: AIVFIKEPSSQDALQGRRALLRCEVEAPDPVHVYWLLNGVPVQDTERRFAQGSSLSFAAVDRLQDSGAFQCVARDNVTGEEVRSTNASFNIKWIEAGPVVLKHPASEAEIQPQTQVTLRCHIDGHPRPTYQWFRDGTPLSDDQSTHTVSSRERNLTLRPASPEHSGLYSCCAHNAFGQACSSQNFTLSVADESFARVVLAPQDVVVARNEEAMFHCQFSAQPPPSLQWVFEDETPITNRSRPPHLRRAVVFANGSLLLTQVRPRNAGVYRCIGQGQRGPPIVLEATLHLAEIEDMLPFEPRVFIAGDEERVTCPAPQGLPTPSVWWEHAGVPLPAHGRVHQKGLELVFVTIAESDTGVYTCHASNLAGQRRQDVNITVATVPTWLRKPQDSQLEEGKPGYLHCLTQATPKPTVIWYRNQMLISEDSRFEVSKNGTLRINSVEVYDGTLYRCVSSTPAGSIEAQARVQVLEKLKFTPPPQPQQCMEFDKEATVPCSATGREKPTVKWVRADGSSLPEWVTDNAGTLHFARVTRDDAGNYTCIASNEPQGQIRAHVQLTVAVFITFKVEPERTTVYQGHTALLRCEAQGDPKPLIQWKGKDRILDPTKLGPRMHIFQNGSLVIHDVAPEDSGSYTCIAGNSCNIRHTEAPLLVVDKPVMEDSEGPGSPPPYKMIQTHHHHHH
Put plainly: BLI (ForteBio), antibody on Protein A sensor. An excerpt: The dynamic affinity of the control Hu24 and candidate antibodies 64A10HZ, 101A6HZ, 4E12HZ and 19C2HZ with human PTK7-His was detected by using ForteBio (Pall life sciences).
(§1) ELISA and ForteBio were adopted to detect binding of the anti-human PTK7 chimeric and humanized antibodies to the monkey, mouse and rat PTK7 proteins.
For orientation: Biolayer interferometry detects binding as a change in optical thickness at a sensor tip.

The target in assay [2] is T2, human PTK7 on cells (tumor cells endogenously expressing PTK7); CHO-hPTK7, CHO-S-hPTK7 and 293T-hPTK7 … (human, UniProt Q13308 31-1070).
T2 construct: whole, on cells; The cell line of each value is named under assay; also called H1299; H358
T2 sequence (looked up): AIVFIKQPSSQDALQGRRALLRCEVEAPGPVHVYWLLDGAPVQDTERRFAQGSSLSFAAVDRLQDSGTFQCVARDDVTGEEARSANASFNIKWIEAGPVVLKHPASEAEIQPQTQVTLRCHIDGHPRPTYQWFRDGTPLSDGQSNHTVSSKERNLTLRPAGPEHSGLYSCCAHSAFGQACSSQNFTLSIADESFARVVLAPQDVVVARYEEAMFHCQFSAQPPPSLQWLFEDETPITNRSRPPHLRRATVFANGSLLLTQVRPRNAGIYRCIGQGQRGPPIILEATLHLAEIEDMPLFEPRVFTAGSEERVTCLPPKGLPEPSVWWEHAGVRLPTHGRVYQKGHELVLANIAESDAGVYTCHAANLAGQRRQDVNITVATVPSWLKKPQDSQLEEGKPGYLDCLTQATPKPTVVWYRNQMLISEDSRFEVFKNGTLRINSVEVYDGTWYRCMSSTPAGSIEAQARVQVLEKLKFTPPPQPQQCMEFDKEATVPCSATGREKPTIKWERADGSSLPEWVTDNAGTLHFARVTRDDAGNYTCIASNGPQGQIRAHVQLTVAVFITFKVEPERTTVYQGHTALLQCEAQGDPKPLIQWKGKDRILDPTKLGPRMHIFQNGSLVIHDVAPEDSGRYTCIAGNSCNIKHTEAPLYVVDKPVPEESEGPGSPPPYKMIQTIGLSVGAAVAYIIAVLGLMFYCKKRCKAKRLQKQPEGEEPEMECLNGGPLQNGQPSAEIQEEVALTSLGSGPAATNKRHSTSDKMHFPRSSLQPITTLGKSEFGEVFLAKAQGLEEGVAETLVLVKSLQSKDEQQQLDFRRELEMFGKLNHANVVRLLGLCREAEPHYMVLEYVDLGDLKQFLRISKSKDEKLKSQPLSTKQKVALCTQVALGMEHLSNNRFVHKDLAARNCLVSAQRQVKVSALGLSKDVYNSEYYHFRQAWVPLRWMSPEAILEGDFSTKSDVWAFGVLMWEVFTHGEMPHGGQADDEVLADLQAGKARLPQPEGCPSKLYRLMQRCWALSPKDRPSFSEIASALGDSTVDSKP
Put plainly: competition flow cytometry on 293T-hPTK7 cells, streptavidin-PE; competitor: biotin-labelled 101A6HZ. For orientation: In flow cytometry, cells or beads pass a laser one at a time.

In assay [3] the target is T1, mouse PTK7 protein (extracellular …). Put plainly: ELISA, coated mouse PTK7 protein. The procedure:
Original data was imported into software for nonlinear curve fitting, and EC₅₀ of binding of each antibody to human PTK7 and monkey PTK7 was calculated, respectively. As shown in Table 1 and FIGS. 1A-1B, the screened antibodies could be bound to the human and monkey PTK7 proteins with affinity higher than that of the control antibody Hu24.
as §1
A general note: In an ELISA, binding on a coated surface is turned into a signal by an enzyme label.

B1: 101A6HZ (anti-human PTK7 humanized antibody) (antibody, human IgG1, kappa)
heavy: not shown
light: DIVMTQSPDSLAVSLGERATINCKASQDVGSAVIWYQQKPGQSPKLLIYWASTRHTGVPDRFSGSGSGTDFTLTISSLQAEDVAVYYCQQYSSYPLTFGQGTKLEIKRTVAAPSVFIFPPSDEQLKSGTASVVCLLNNFYPREAKVQWKVDNALQSGNSQESVTEQDSKDSTYSLSSTLTLSKADYEKHKVYACEVTHQGLSSPVTKSFNRGEC
B1: the binding result in assay [1] is recorded as “no binding”. In addition, in assay [2], the “IC50 (read off the curve)” value was approximately 1 µg/mL.

B2: 64A10HZ (anti-human PTK7 humanized antibody) (antibody, human IgG1, kappa, V domains shown)
VH: QVQLQESGPGLVKPSETLSLTCTVSGFSLTSYGVYWVRQPPGKGPEWLGVIWTSGNTNYNPSLKSRLTISKDNSKNQVSLKLSSVTAADTAVYYCVKHDGGNYVGVMNYWGQGTLVTVSS
VL: EIVMTQSPDFQSVTPKEKVTITCRASQSISDYLHWYQQKPDQSPKLLIKYASQSISGVPSRFSGSGSGSDFTLTINSLEAEDAATYYCQNGHSFPPTFGQGTKLEIKR
notes: Human IgG1 heavy chain constant region and human Kappa light chain constant region; expressed in CHO-S cells
Consider B2, for which, in assay [3], the binding result is listed as “no binding”.
